The values below come from paper PMC7886051, “Redesigning the Molecular Choreography to Prevent Hydroxylation in Germacradien-11-ol Synthase Catalysis” (ACS Catalysis, 2021).

Substrate in this data set: CC(C)=CCC/C(C)=C/CC/C(C)=C/CO[P@@](=O)(O)OP(=O)(O)O
The data set can be described thus: steady-state kinetics of purified enzyme (details in supplement). The data set is classed as biochemical, Streptomyces coelicolor. Conditions: Mg2+-dependent enzyme; assay conditions in supplement. The source says:
steady-state kinetics of purified enzyme (details in supplement) on Gd11olS (germacradien-11-ol synthase; N-terminal domain of geosmin synthase)

Positions count from the first letter of the chain named. Names and notes keep the numbering of the source.

B1: Gd11olS (germacradien-11-ol synthase; N-terminal domain of geosmin synthase) (Streptomyces coelicolor A3(2); V187A) (protein)
chain: MTQQPFQLPHFYLPHPARLNPHLDEARAHSTTWAREMGMLEGSGVWEQSDLEAHDYGLLCAYTHPDCDGPALSLITDWYVWVFFFDDHFLEKYKRSQDRLAGKAHLDRLPLFMPLDDAAGMPEPRNPVEAGLADLWTRTVPAMSADWRRRFAVATEHLLNESMWELSNINEGRVANPVEYIEMRRKAGGAPWSAGLVEYATAEVPAAVAGTRPLRVLMETFSDAVHLRNDLFSYQREVEDEGELSNGVLVLETFFGCTTQEAADLVNDVLTSRLHQFEHTAFTEVPAVALEKGLTPLEVAAVGAYTKGLQDWQSGGHEWHMRSSRYMNKGERPLAGWQALTGPGTSAADVGALLADAVAQRARSYT
notes: N-terminal domain, residues 1-366 of geosmin synthase; codon-optimized synthetic gene in pET28a, expressed in E. coli, purified to homogeneity; tag details in supplement
For B1, the Km was determined as 0.3 ± 0.06 µM and the kcat is 0.000194 ± 1e-07 s⁻¹.

B2: Gd11olS (germacradien-11-ol synthase; N-terminal domain of geosmin synthase) (Streptomyces coelicolor A3(2); W312A) (protein)
chain: B1 chain with A187V, W312A
notes: as for B1
Regarding B2, the Km turned out to be 0.4 ± 0.07 µM and the kcat worked out at 4.02e-05 ± 1e-07 s⁻¹.

B3: Gd11olS (germacradien-11-ol synthase; N-terminal domain of geosmin synthase) (Streptomyces coelicolor A3(2)) (protein)
chain: B1 chain with A187V
notes: as for B1
Take B3: the Km was found to be 0.5 ± 0.08 µM and the turnover number (kcat) worked out at 0.000524 ± 2e-07 s⁻¹.

B4: Gd11olS (germacradien-11-ol synthase; N-terminal domain of geosmin synthase) (Streptomyces coelicolor A3(2); G188S) (protein)
chain: B1 chain with A187V, G188S
notes: as for B1
With B4, the Km turned out to be 5.7 ± 0.9 µM and the kcat was 4.08e-05 ± 2e-06 s⁻¹.

B5: Gd11olS (germacradien-11-ol synthase; N-terminal domain of geosmin synthase) (Streptomyces coelicolor A3(2); W312F) (protein)
chain: B1 chain with A187V, W312F
notes: as for B1
For the protein B5, the Km amounted to 0.9 ± 0.09 µM and the kcat turned out to be 0.000255 ± 6e-07 s⁻¹.

B6: Gd11olS (germacradien-11-ol synthase; N-terminal domain of geosmin synthase) (Streptomyces coelicolor A3(2); H320F) (protein)
chain: B1 chain with A187V, H320F
notes: as for B1
For B6, the Km came out at 1.8 ± 0.5 µM and the kcat amounted to 2.3e-05 ± 2e-07 s⁻¹.

B7: Gd11olS (germacradien-11-ol synthase; N-terminal domain of geosmin synthase) (Streptomyces coelicolor A3(2); Q313A) (protein)
chain: B1 chain with A187V, Q313A
notes: as for B1
Consider B7, for which the Michaelis constant (Km) came to 1.10 ± 0.14 µM and the kcat is 6.9e-05 ± 2e-07 s⁻¹.

B8: Gd11olS (germacradien-11-ol synthase; N-terminal domain of geosmin synthase) (Streptomyces coelicolor A3(2); H320A) (protein)
chain: B1 chain with A187V, H320A
notes: as for B1
In the case of B8, the Km was 1.12 ± 0.10 µM and the kcat stood at 3.8e-05 ± 1e-07 s⁻¹.

B9: Gd11olS (germacradien-11-ol synthase; N-terminal domain of geosmin synthase) (Streptomyces coelicolor A3(2); Q313N) (protein)
chain: B1 chain with A187V, Q313N
notes: as for B1
Turning to B9, the Km was found to be 0.5 ± 0.07 µM and the kcat is 5.02e-05 ± 1e-07 s⁻¹.

B10: Gd11olS (germacradien-11-ol synthase; N-terminal domain of geosmin synthase) (Streptomyces coelicolor A3(2); G188A) (protein)
chain: B1 chain with A187V, G188A
notes: as for B1
For the protein B10, the Km was 3.8 ± 1.5 µM and the kcat was 3.7e-05 ± 5e-06 s⁻¹.

B11: Gd11olS (germacradien-11-ol synthase; N-terminal domain of geosmin synthase) (Streptomyces coelicolor A3(2); R228V) (protein)
chain: B1 chain with A187V, R228V
notes: as for B1
Take B11: the Km is 0.8 ± 0.10 µM and the turnover number (kcat) came to 0.0001814 ± 4e-07 s⁻¹.
